# Laboratory results reported in patent publication US20190323012, “TNF-Alpha-Binding Aptamer, And Therapeutic Use For Same” (BIOIS CO., LTD., published 2019).
# Columns and labels:
# TNF-alpha [1] = target: T1, TNF-alpha (Homo sapiens, UniProt P01375 P01375:77-233); experiment: SPR; range given for ATK001 and ATK007 together; TNF-alpha immobilized on CM5, HBS; conditions: tags: recombinant human TNF-alpha (Sigma-Aldrich; biotinylated for SELEX); chain copies: 3
# Description: SPR (Surface Plasmon Resonance) analysis was performed using a Biacore2000 (BIACORE, USA). A mixture of NHS (0.1 M N-hydroxysuccinimide) and DEC (0.4 M N-ethyl-N′-(dimethylaminopropyl)carbodiimide) in equal amounts (50 μL) was prepared and allowed to flow at 5 μL/min for 40 sec to thus activate a CM5 sensor chip. When 150-200 RU appeared, TNF-α protein to be immobilized was mixed with sodium acetate (pH 4.0) and allowed to flow at […]. In order to evaluate whether or not the protein was immobilized, 50 mM NaOH was allowed to flow for 5 sec. At 80° C., RNA aptamers ATK001 and ATK007 were denatured for 5 min and then restored at room temperature for 15 min, thus preparing an analyte (RNA).
# (§1) In order to determine kinetics, the flow rate was changed to 30 μL/min.
# ErbB3 = ErbB3 (UniProt P21860 P21860:20-643); experiment: SPR; specificity control; printed as about 104 nM, read as 10^4 nM (lost superscript); conditions: tags: ThermoFisher
# Chain of ErbB3 (P21860 20-643, one chain of several): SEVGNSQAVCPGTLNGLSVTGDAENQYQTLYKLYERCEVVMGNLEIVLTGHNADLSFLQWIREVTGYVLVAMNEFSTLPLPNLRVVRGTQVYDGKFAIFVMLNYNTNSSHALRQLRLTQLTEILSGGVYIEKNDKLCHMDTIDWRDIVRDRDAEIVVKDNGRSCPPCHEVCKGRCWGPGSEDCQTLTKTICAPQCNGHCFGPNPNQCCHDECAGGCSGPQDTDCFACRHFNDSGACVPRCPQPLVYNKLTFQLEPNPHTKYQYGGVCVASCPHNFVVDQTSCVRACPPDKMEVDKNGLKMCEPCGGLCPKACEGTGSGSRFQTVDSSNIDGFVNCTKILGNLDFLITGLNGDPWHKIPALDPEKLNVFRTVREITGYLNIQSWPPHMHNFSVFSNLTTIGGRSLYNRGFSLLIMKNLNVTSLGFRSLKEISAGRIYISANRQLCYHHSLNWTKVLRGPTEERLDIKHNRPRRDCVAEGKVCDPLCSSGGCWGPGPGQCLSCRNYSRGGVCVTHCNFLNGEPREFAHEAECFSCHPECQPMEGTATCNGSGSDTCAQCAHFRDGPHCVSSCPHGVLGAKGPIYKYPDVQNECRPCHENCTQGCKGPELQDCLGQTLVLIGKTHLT
# Description: as §1
# (§2) In order to evaluate the binding specificity of the RNA aptamer to TNF-α through SPR analysis in the same manner as in <Example 4> above, the binding capability to ErbB2 (ThermoFisher, USA) (Nucleic Acid Ther. 2011 June; 21(3):173-178), ErbB3 (ThermoFisher, USA) (Proc. Natl. Acad. Sci. USA. (2012), 109(33):13237-42) and IGF-BP1 (ThermoFisher, USA) (Insulin-like growth factor-binding protein 1) (Crit. Rev. Oncol. Hematol. (2008), 66(2):91-98), in addition to TNF-α, was quantified in Kd. The results are shown in [FIG. 5] (FIG. 5a illustrating the results of measurement of binding capability of ATK001, FIG. 5b illustrating the results of measurement of binding capability of ATK007, and FIG. 5c illustrating the results of measurement of binding capability of ATK001).
# ErbB2 = ErbB2 (UniProt P04626 P04626:23-652); experiment: as above; conditions: tags: ThermoFisher
# Description: as §1, §2
# TNF-alpha [2] = target: T1, TNF-alpha; experiment: EMSA; 30 mM Tris-HCl pH 7.5, 150 mM NaCl, 1.5 mM MgCl2, 2 mM DTT, tRNA, room temperature; radiolabeled RNA 50 pM; conditions: tags: recombinant human TNF-alpha (Sigma-Aldrich; biotinylated for SELEX); chain copies: 3
# Description: The single-stranded nucleic acids (50 pM) binding to TNF-α, selected in <Example 2> and labeled with radioisotopes, were reacted with TNF-α protein in a manner in which the amount of TNF-α protein was increased (ranging from 0 to 320 nM). Here, the total amount of the aptamer, TNF-α protein, binding buffer (30 mM Tris-HCl (pH 7.5), 150 mM NaCl, 1.5 mM MgCl₂, and 2 mM DTT), and […] tRNA was adjusted to 40 μL, followed by binding at room temperature for 30 min. 6×BPB was added thereto, after which electrophoresis at 4° C. and 120 V using a 6% native gel (6% polyacrylamide, 1×TBE, 10 mM MgCl₂, 2% glycerol), exposure to an X-ray film and development were performed. The dissociation constant Kd was determined by calculating the amount of the RNA aptamer binding to TNF-α relative to the total RNA aptamer.
# The 4% non-denatured acrylamide gel images of the TNF-α-bound RNA aptamer (C) and the TNF-α-unbound RNA aptamer (F), resulting from reacting the radioisotope-labeled 50 pM RNA aptamer ATK001 (a) and 50 pM RNA aptamer ATK007 (b) with TNF-α in a manner in which the amount of TNF-α was increased (ranging from 0 to 320 nM), are shown in a and b of FIG. 4. The percentage of RNA binding to TNF-α was determined and is graphed in c of FIG. 4.
# T1 sequence (P01375 77-233, one chain of several): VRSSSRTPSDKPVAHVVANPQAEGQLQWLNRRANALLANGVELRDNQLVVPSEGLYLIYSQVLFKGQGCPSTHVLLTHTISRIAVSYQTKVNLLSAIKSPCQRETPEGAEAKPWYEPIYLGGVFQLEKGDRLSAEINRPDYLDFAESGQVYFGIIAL
Binder,Kd (TNF-alpha [1]) [µM],Kd (ErbB3) [µM],Kd (ErbB2) [µM],Kd (TNF-alpha [2]) [µM]
"ATK001 (ssRNA, 2'-F on all C and U) RNA: GGGAGGACGAUGCGGCCACUGGCUAGGAACUCGAGUACUGGGUGGCAGACGACUCGCCCGA",0.00529,~10,~10,–
"ATK007 (ssRNA, 2'-F on all C and U) RNA: GCGGAAGCGUGCUGGGCCCGGCUUGCAGGUCGCCGAAAUGACCGCACACAUAACCCAGAGGUCGAU",0.00529,~10,~10,~0.005
